Results taken from patent publication US20260201064A1 (ISU ABXIS, published 2026).
Numbering of substitutions follows the chain as printed.

T1: recombinant human ASM protein (human, UniProt P17405 47-630)
T1 construct: Recombinant human ASM in solution; also called acid sphingomyelinase (ASM) protein
T1 sequence: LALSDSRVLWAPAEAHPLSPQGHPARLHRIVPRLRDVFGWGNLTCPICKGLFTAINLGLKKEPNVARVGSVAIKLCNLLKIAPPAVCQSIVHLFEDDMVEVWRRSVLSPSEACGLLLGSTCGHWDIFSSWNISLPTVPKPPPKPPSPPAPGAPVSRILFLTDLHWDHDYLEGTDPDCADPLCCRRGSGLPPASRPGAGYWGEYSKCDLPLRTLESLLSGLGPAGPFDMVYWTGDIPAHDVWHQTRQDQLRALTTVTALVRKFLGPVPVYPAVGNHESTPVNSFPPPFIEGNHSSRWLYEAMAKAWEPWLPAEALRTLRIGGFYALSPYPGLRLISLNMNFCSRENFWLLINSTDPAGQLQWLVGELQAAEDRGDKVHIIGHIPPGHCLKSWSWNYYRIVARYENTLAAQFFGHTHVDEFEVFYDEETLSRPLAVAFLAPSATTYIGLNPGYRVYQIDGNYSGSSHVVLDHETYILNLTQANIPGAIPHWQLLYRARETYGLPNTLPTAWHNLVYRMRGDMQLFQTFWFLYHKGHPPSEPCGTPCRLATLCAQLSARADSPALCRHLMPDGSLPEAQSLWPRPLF

B1: #9104v-L11 (antibody, human IgG4 S228P, lambda, V domains shown)
VH: EVQLLESGGGLVQPGGSLRLSCAASGFTFSNYYMSWVRQAPGKGLEWVSGIYYGSGNIYYADSVKGRFTISRDNSKNTLYLQMNSLRAEDTAVYYCARDTPGFDYWGQGTLVTVSS
VL: QSVLTQPPSASGTPGQRVTISCTGSSSNIGNNAVNWYQQLPGTAPKLLIYYDIFQPSGVPDRFSGSKSGTSASLAISGLRSEDEADYYCGAWDYSLSAYVFGGGTKLTVLG
notes: Full-length IgG, lambda
B2: #9104v-L12 (antibody, human IgG4 S228P, lambda, V domains shown)
VH: B1 VH
VL: B1 VL with Q55R, S57D
notes: Full-length IgG, lambda
B3: #9104v-L15 (antibody, human IgG4 S228P, lambda, V domains shown)
VH: B1 VH
VL: B1 VL with F54H, Q55R, S57Y
notes: Full-length IgG, lambda
B4: #9104a-B8 (antibody, human IgG4 S228P, lambda, V domains shown)
VH: B1 VH with I51V, G54P, I58P
VL: B1 VL with I53M, Q55R, S57N
notes: VH of #9104v-H33 with VL of #9104v-L21; full-length IgG, lambda
B5: #9104a-D8 (antibody, human IgG4 S228P, lambda, V domains shown)
VH: B1 VH with I51V, G54P, I58P
VL: B1 VL with I53Y, Q55S, P56H
notes: VH of #9104v-H33 with VL of #9104v-L64; full-length IgG, lambda
B6: #9104a-C5 (antibody, human IgG4 S228P, lambda, V domains shown)
VH: B1 VH with N57V, I58P
VL: B1 VL with I53Q, Q55R
notes: VH of #9104v-H19 with VL of #9104v-L23; full-length IgG, lambda
B7: #9104a-C1 (antibody, human IgG4 S228P, lambda, V domains shown)
VH: B1 VH with S55N, N57I, I58P, G66D
VL: B1 VL with I53Q, Q55R
notes: VH of #9104v-H10 with VL of #9104v-L23; full-length IgG, lambda
B8: #9104a-C7 (antibody, human IgG4 S228P, lambda, V domains shown)
VH: B1 VH with I51V, N57T, I58P
VL: B1 VL with I53Q, Q55R
notes: VH of #9104v-H31 with VL of #9104v-L23; full-length IgG, lambda
B9: #9104a-D4 (antibody, human IgG4 S228P, lambda, V domains shown)
VH: B1 VH with Q39R, N57T, I58P, D62A
VL: B1 VL with I53Y, Q55S, P56H
notes: VH of #9104v-H17 with VL of #9104v-L64; full-length IgG, lambda
B10: #9104a-D2 (antibody, human IgG4 S228P, lambda, V domains shown)
VH: B1 VH with N57I, I58P, G66E
VL: B1 VL with I53Y, Q55S, P56H
notes: VH of #9104v-H11 with VL of #9104v-L64; full-length IgG, lambda
B11: #9104a-D6 (antibody, human IgG4 S228P, lambda, V domains shown)
VH: B1 VH with I51T, G54D, N57Y, I58V
VL: B1 VL with I53Y, Q55S, P56H
notes: VH of #9104v-H27 with VL of #9104v-L64; full-length IgG, lambda
B12: #9104a-E7 (antibody, human IgG4 S228P, lambda, V domains shown)
VH: B1 VH with I51V, N57T, I58P
VL: B1 VL with I53Y, F54Y, P56S
notes: VH of #9104v-H31 with VL of #9104v-L65; full-length IgG, lambda
B13: #9104a-C3 (antibody, human IgG4 S228P, lambda, V domains shown)
VH: B1 VH with N57I, I58P, D62N
VL: B1 VL with I53Q, Q55R
notes: VH of #9104v-H13 with VL of #9104v-L23; full-length IgG, lambda
B14: #9104a-E8 (antibody, human IgG4 S228P, lambda, V domains shown)
VH: B1 VH with I51V, G54P, I58P
VL: B1 VL with I53Y, F54Y, P56S
notes: VH of #9104v-H33 with VL of #9104v-L65; full-length IgG, lambda
B15: #9104a-D1 (antibody, human IgG4 S228P, lambda, V domains shown)
VH: B1 VH with S55N, N57I, I58P, G66D
VL: B1 VL with I53Y, Q55S, P56H
notes: VH of #9104v-H10 with VL of #9104v-L64; full-length IgG, lambda
B16: #9104a-E1 (antibody, human IgG4 S228P, lambda, V domains shown)
VH: B1 VH with S55N, N57I, I58P, G66D
VL: B1 VL with I53Y, F54Y, P56S
notes: VH of #9104v-H10 with VL of #9104v-L65; full-length IgG, lambda
B17: #9104a-C6 (antibody, human IgG4 S228P, lambda, V domains shown)
VH: B1 VH with I51T, G54D, N57Y, I58V
VL: B1 VL with I53Q, Q55R
notes: VH of #9104v-H27 with VL of #9104v-L23; full-length IgG, lambda
B18: #9104a-D7 (antibody, human IgG4 S228P, lambda, V domains shown)
VH: B1 VH with I51V, N57T, I58P
VL: B1 VL with I53Y, Q55S, P56H
notes: VH of #9104v-H31 with VL of #9104v-L64; full-length IgG, lambda
B19: #9104a-D3 (antibody, human IgG4 S228P, lambda, V domains shown)
VH: B1 VH with N57I, I58P, D62N
VL: B1 VL with I53Y, Q55S, P56H
notes: VH of #9104v-H13 with VL of #9104v-L64; full-length IgG, lambda
B20: #9104a-E4 (antibody, human IgG4 S228P, lambda, V domains shown)
VH: B1 VH with Q39R, N57T, I58P, D62A
VL: B1 VL with I53Y, F54Y, P56S
notes: VH of #9104v-H17 with VL of #9104v-L65; full-length IgG, lambda
B21: #9104a-C2 (antibody, human IgG4 S228P, lambda, V domains shown)
VH: B1 VH with N57I, I58P, G66E
VL: B1 VL with I53Q, Q55R
notes: VH of #9104v-H11 with VL of #9104v-L23; full-length IgG, lambda
B22: #9104a-E2 (antibody, human IgG4 S228P, lambda, V domains shown)
VH: B1 VH with N57I, I58P, G66E
VL: B1 VL with I53Y, F54Y, P56S
notes: VH of #9104v-H11 with VL of #9104v-L65; full-length IgG, lambda
B23: #9104a-E6 (antibody, human IgG4 S228P, lambda, V domains shown)
VH: B1 VH with I51T, G54D, N57Y, I58V
VL: B1 VL with I53Y, F54Y, P56S
notes: VH of #9104v-H27 with VL of #9104v-L65; full-length IgG, lambda
B24: #9104a-E5 (antibody, human IgG4 S228P, lambda, V domains shown)
VH: B1 VH with N57V, I58P
VL: B1 VL with I53Y, F54Y, P56S
notes: VH of #9104v-H19 with VL of #9104v-L65; full-length IgG, lambda
B25: #9104a-C4 (antibody, human IgG4 S228P, lambda, V domains shown)
VH: B1 VH with Q39R, N57T, I58P, D62A
VL: B1 VL with I53Q, Q55R
notes: VH of #9104v-H17 with VL of #9104v-L23; full-length IgG, lambda
B26: #9104a-E3 (antibody, human IgG4 S228P, lambda, V domains shown)
VH: B1 VH with N57I, I58P, D62N
VL: B1 VL with I53Y, F54Y, P56S
notes: VH of #9104v-H13 with VL of #9104v-L65; full-length IgG, lambda
B27: #9104a-D5 (antibody, human IgG4 S228P, lambda, V domains shown)
VH: B1 VH with N57V, I58P
VL: B1 VL with I53Y, Q55S, P56H
notes: VH of #9104v-H19 with VL of #9104v-L64; full-length IgG, lambda

Target: T1, recombinant human ASM protein
Assay: BLI (Octet), antibody on AHC sensor
Method: (§1) The binding affinity, to the ASM protein, of the produced antibodies specifically binding to the ASM protein and the interactive dynamics therebetween were measured using an Octet® QK384 system (Pall Life Sciences).
(§2) First, an antibody specifically binding to the ASM protein produced in Example 1 was captured using an anti-human IgG Fc capture (AHC) biosensor, and 1.25, 2.5, 5, 10, or 20 nM recombinant human ASM protein solution was added thereto. […] The association constant (Kₐ), dissociation constant (Kd), and equilibrium dissociation constant (KD) for each antibody were determined using Octet® analysis software (Pall Life® Sciences). As a result, the binding affinities, to the human ASM protein, of the antibodies with mutations in the heavy chain CDR regions of the antibody #9104 as depicted in Table 1 are shown in Table 5, and the binding affinities, to the human ASM protein, of the antibodies with mutations of the light chain CDR regions in the antibody #9104 as depicted in Table 2 are shown in Table 6.

| Binder | Kd [nM] | koff [s⁻¹] | kon [M⁻¹ s⁻¹] |
| --- | --- | --- | --- |
| B1 | 0.768 | 0.000199 | 259000 |
| B2 | 0.718 | 0.000159 | 221000 |
| B3 | 0.992 | 0.000273 | 275000 |

Target: T1, recombinant human ASM protein
Assay: BLI (Octet), antibody on AHC sensor
Remark: another data set of the same source
Method: as §1, §2
After the small-scale expression in the ExpiCHO cell line as described above, the binding affinity to the human ASM protein was investigated as described in Experimental Example 1. Specifically, the antibody produced by a combination of #9104v-H33 heavy chain variable region and #9104v-L23 light chain variable region was not expressed and thus excluded in the analysis of binding affinity to ASM protein.

| Binder | Kd [nM] | koff [s⁻¹] | kon [M⁻¹ s⁻¹] |
| --- | --- | --- | --- |
| B4 | 0.28 | 6.44e-05 | 230000 |
| B5 | 0.177 | 3.33e-05 | 188000 |
| B6 | 0.192 | 6.46e-05 | 337000 |
| B7 | 0.139 | 3.76e-05 | 271000 |
| B8 | 0.152 | 4.56e-05 | 300000 |
| B9 | 0.206 | 5.09e-05 | 248000 |
| B10 | 0.149 | 5.22e-05 | 351000 |
| B11 | 1.07 | 8.7e-05 | 81200 |
| B12 | 0.211 | 4.59e-05 | 218000 |
| B13 | 0.176 | 4.55e-05 | 259000 |
| B14 | 0.38 | 5.66e-05 | 149000 |
| B15 | 0.0948 | 2.79e-05 | 294000 |
| B16 | 0.289 | 6.21e-05 | 215000 |
| B17 | 0.928 | 0.000109 | 117000 |
| B18 | 0.198 | 5.69e-05 | 288000 |
| B19 | 0.229 | 6.73e-05 | 294000 |
| B20 | 0.197 | 4.15e-05 | 210000 |
| B21 | 0.172 | 5.28e-05 | 306000 |
| B22 | 0.212 | 4.27e-05 | 202000 |
| B23 | 1.19 | 7.77e-05 | 65500 |
| B24 | 0.273 | 6.36e-05 | 234000 |
| B25 | 0.203 | 6.42e-05 | 317000 |
| B26 | 0.28 | 5.74e-05 | 205000 |
| B27 | 0.13 | 3.39e-05 | 261000 |
